In the RNAGym collection of RNA variant scans (doi:10.7554/elife.80360) one finds self-cleavage data, which are given here for 167 variants.

Sequences and labels used below:
B1: Hairpin Ribozyme (parent)
chain: GUCCUCUUUCACGUGCGCGUGAAAGAGAGAAGUGAACCAGAGAAACACACGUUGUGGUAUAUUACCUGGUA

Variants of B1 are the subject of the data set. Nature of the data set: self-cleavage, relative activity (ratio to wild type); higher = more cleavage; co-transcriptional.
C18U A47C: the self-cleavage was 0.474.

With G19C C48G, the self-cleavage turned out to be 0.165.

On to G19A A36U, for which the self-cleavage was 0.542.

Consider G19A A36C, for which the self-cleavage turned out to be 0.511.

Turning to G19U C66A, the self-cleavage amounted to 0.272.

Take C18U C48G: the self-cleavage was 0.0965.

As for G17U G34C, the self-cleavage is 1.5.

As for G17U G34U, the self-cleavage amounted to 1.29.

Consider C18G G40A, for which the self-cleavage turned out to be 0.344.

For G17U U52C, the self-cleavage was determined as 0.816.

Take C18G A22U: the self-cleavage turned out to be 0.801.

In the case of C18G A36G, the self-cleavage is 0.68.

On to C18A U70G, for which the self-cleavage was 0.862.

Turning to C18G U58G, the self-cleavage was 0.89.

As to C18G U58A, the self-cleavage is 0.632.

For the variant C18G A61U, the self-cleavage was determined as 0.247.

Take G17U C46U: the self-cleavage is 0.14.

Turning to G19A U60A, the self-cleavage was found to be 0.658.

With G19A U60C, the self-cleavage is 1.05.

Regarding G19A U60G, the self-cleavage stood at 0.448.

For G17U U60G, the self-cleavage was determined as 0.343.

For C18A U67C, the self-cleavage stood at 0.274.

Regarding C18A A47G, the self-cleavage came to 0.216.

Regarding C18G A47C, the self-cleavage stood at 0.242.

For the variant C18G A47U, the self-cleavage stood at 0.0785.

As to C18G A71G, the self-cleavage was 0.932.

G19C A45C: the self-cleavage is 0.114.

For G19C A45G, the self-cleavage stood at 0.277.

G19U G27A: the self-cleavage was found to be 0.489.

Turning to G19U U62A, the self-cleavage is 0.268.

With G19U U62G, the self-cleavage was 0.24.

For G19A A64C, the self-cleavage is 0.181.

Turning to G19A G27U, the self-cleavage is 0.237.

As to C18U A30C, the self-cleavage amounted to 0.21.

C18U A30G: the self-cleavage was 0.151.

Regarding G19U C65A, the self-cleavage turned out to be 0.733.

On to G19U C65G, for which the self-cleavage was found to be 0.405.

In the case of C18G U20C, the self-cleavage was 0.923.

Consider C18G A59U, for which the self-cleavage worked out at 0.239.

Turning to C18G A59G, the self-cleavage worked out at 0.284.

C18U C66A: the self-cleavage worked out at 0.25.

With G19C G32A, the self-cleavage was found to be 0.147.

Turning to G17U U58C, the self-cleavage stood at 1.13.

With G17U U58G, the self-cleavage worked out at 0.644.

Regarding G17U U58A, the self-cleavage amounted to 0.593.

On to G17U G29U, for which the self-cleavage is 0.128.

For the variant G17U G29A, the self-cleavage was 0.105.

For G19U A43C, the self-cleavage turned out to be 0.101.

For the variant G19C A44G, the self-cleavage turned out to be 0.0921.

G19A U52C: the self-cleavage was 0.835.

With G19A A39G, the self-cleavage amounted to 0.274.

Take G19A A39C: the self-cleavage is 0.437.

As to G19C A26G, the self-cleavage amounted to 0.692.

Turning to G19U, the self-cleavage amounted to 0.891.

Take G19A: the self-cleavage came to 0.853.

Consider G19C, for which the self-cleavage was found to be 0.85.

On to C18U G51A, for which the self-cleavage turned out to be 1.26.

For the variant C18U G51C, the self-cleavage came out at 0.881.

For G19A G57C, the self-cleavage stood at 0.138.

With G19A G57A, the self-cleavage came out at 0.152.

In the case of C18U G32C, the self-cleavage is 0.142.

Consider G19A A59C, for which the self-cleavage was 0.199.

Consider U20A A26U, for which the self-cleavage stood at 0.611.

Turning to U20A A26C, the self-cleavage was 0.394.

C18U G57U: the self-cleavage worked out at 0.234.

Consider C18U G57A, for which the self-cleavage turned out to be 0.188.

Consider G19C A35C, for which the self-cleavage worked out at 0.832.

Turning to G19C A35U, the self-cleavage amounted to 0.574.

As to G19C U55C, the self-cleavage was 0.271.

Take G19U A30U: the self-cleavage was found to be 0.181.

Turning to G19U A30G, the self-cleavage was 0.12.

Take C18U G34U: the self-cleavage turned out to be 1.46.

For G19U U70G, the self-cleavage is 0.79.

On to G19U A49U, for which the self-cleavage was 0.158.

G19C C66G: the self-cleavage is 0.245.

For C18U G27U, the self-cleavage worked out at 0.303.

With C18A A45C, the self-cleavage was 0.173.

Turning to C18U A44G, the self-cleavage came out at 0.113.

As for C18U A44U, the self-cleavage came out at 0.15.

Consider C18U U63C, for which the self-cleavage turned out to be 0.18.

Regarding C18U U63G, the self-cleavage amounted to 0.278.

Regarding C18U U63A, the self-cleavage worked out at 0.229.

Take C18A G19C: the self-cleavage stood at 0.802.

For the variant G19C U60G, the self-cleavage worked out at 0.541.

As to G19C U60C, the self-cleavage was determined as 0.984.

In the case of G19C U60A, the self-cleavage amounted to 0.9.

Take C18U C50A: the self-cleavage is 0.314.

In the case of C18A G29C, the self-cleavage was found to be 0.118.

In the case of C18A G29A, the self-cleavage worked out at 0.149.

On to G19U C48G, for which the self-cleavage is 0.2.

For G19C A23C, the self-cleavage was found to be 0.696.

Consider G19C G21U, for which the self-cleavage was 0.718.

Turning to G17U C38A, the self-cleavage was found to be 0.136.

In the case of C18A G40A, the self-cleavage turned out to be 0.305.

Regarding C18A G40U, the self-cleavage is 0.174.

With C18A A64U, the self-cleavage was determined as 0.158.

For C18A A64G, the self-cleavage came to 0.61.

On to C18G A35G, for which the self-cleavage is 1.24.

Turning to G19C C38U, the self-cleavage was 0.489.

With G19C C38A, the self-cleavage was 0.174.

For C18A A30G, the self-cleavage stood at 0.115.

G19C G56A: the self-cleavage is 0.101.

On to C18G G69A, for which the self-cleavage was 0.378.

With G19U A71G, the self-cleavage worked out at 1.02.

Regarding G19C G42C, the self-cleavage came to 0.329.

For G19C G42A, the self-cleavage stood at 0.194.

As to C18U A64G, the self-cleavage was determined as 0.71.

Regarding C18U A64U, the self-cleavage was found to be 0.109.

For the variant C18U A64C, the self-cleavage stood at 0.216.

In the case of G19U U20A, the self-cleavage worked out at 0.825.

As to G19C A49C, the self-cleavage was found to be 0.0455.

Consider G19C A49G, for which the self-cleavage was determined as 0.366.

For the variant C18G A45G, the self-cleavage was determined as 0.0821.

For the variant G19U G21A, the self-cleavage amounted to 0.875.

As to C18U A61G, the self-cleavage was 0.276.

For the variant G17U G69A, the self-cleavage came to 0.382.

As to G19A G21C, the self-cleavage is 0.673.

Turning to C18G U67C, the self-cleavage amounted to 0.212.

Take C18G U67A: the self-cleavage came out at 0.229.

Regarding G19U A28C, the self-cleavage worked out at 0.357.

Turning to G19U A28U, the self-cleavage was found to be 0.628.

As for G19U A22U, the self-cleavage turned out to be 0.648.

With G19A U67C, the self-cleavage worked out at 0.186.

Turning to G19A A47G, the self-cleavage stood at 0.183.

For G19U G57C, the self-cleavage was determined as 0.105.

On to G17U U70G, for which the self-cleavage stood at 0.739.

In the case of G17U U70C, the self-cleavage turned out to be 0.859.

With G17U U67C, the self-cleavage came out at 0.184.

As for G19C C46A, the self-cleavage was determined as 0.303.

As to G19C A28C, the self-cleavage stood at 0.304.

As for G19C A28G, the self-cleavage turned out to be 1.15.

Take C18G G34A: the self-cleavage was found to be 1.23.

On to U20A A22C, for which the self-cleavage is 0.373.

Turning to U20A A22U, the self-cleavage was found to be 0.849.

Consider U20A A22G, for which the self-cleavage is 0.587.

For the variant G19C G68C, the self-cleavage came out at 0.222.

On to G19C G68A, for which the self-cleavage was 0.276.

Turning to G19A C50A, the self-cleavage worked out at 0.278.

In the case of G19U C50A, the self-cleavage was determined as 0.329.

Turning to G19C A61U, the self-cleavage was determined as 0.25.

As to G19C A61G, the self-cleavage came out at 0.144.

In the case of G19U U60G, the self-cleavage worked out at 0.444.

As for G19U U60A, the self-cleavage came out at 0.804.

With C18U U58C, the self-cleavage stood at 1.17.

As for C18U U58G, the self-cleavage stood at 0.991.

Consider C18G U52G, for which the self-cleavage stood at 0.538.

G19A U70C: the self-cleavage stood at 0.922.

On to C18G G51A, for which the self-cleavage came out at 0.933.

Turning to C18G G51U, the self-cleavage amounted to 0.953.

For the variant G19A C37G, the self-cleavage is 0.188.

With G19A C46G, the self-cleavage was 0.176.

For the variant C18G C66A, the self-cleavage came to 0.194.

In the case of C18U U33A, the self-cleavage was determined as 0.242.

For the variant C18U A28G, the self-cleavage was 1.26.

Take C18G C48G: the self-cleavage amounted to 0.138.

Consider C18G C48A, for which the self-cleavage was 0.146.

Regarding C18G C48U, the self-cleavage stood at 0.11.

As to G19C G34C, the self-cleavage amounted to 1.31.

On to C18U A24C, for which the self-cleavage is 1.21.

As to G19A A24U, the self-cleavage turned out to be 0.629.

As for G19U G32A, the self-cleavage was 0.124.

For the variant C18U A49U, the self-cleavage stood at 0.141.

In the case of C18G U33A, the self-cleavage came out at 0.169.

G19A G25C: the self-cleavage turned out to be 0.419.

G19A G25U: the self-cleavage was 0.441.

Turning to G19A A28U, the self-cleavage stood at 0.408.

In the case of G19A A28G, the self-cleavage turned out to be 0.934.
